Experimental findings from patent publication US12365738B2, “Method of treating an interleukin-11-associated or -mediated fibrotic disease or condition by administering an anti-interleukin-11 receptor subunit alpha (IL-11RA) antibody” (Lassen Therapeutics, Inc., priority 2021, dated 2025) are described below.

For experiment [1], the system named is type VI collagen formation (PRO-C6) in fibrotic human PCLS. The experiment can be described thus: Fibrotic human precision-cut lung slice (PCLS) model, PRO-C6 ECM remodeling biomarker. The following applies: for median levels of PRO-C6 compared to the no treatment (media) control: pooled data, all donors and regions, mAb5 0.3, 3.0, 30 μg/mL, nintedanib 1 μM, isotype control 30 μg/mL. It is filed as cell-based. The procedure: Tissue slices were prepared from the subpleural and central region of the fibrotic lung from two human end-stage donors with pulmonary fibrosis (IPF and secondary fibrosis) (see, for example, Hess et al., Toxicol In Vitro. 32:347-61, 2016). For both donors, lung tissue samples from two different regional areas (subpleural and central) were used to generate tissue cores used for PCLS. Adjacent cores were used to achieve serial PCLS for the analysis of one treatment as compared to medium treated PCLS from the same cores. This enables the comparison of densely packed fibrotic areas with fibrotic foci with less affected areas. To ensure the fibrotic status, clinical/demographic information for each patient is provided.
Each treatment was tested with three replicates for each lung region and for each donor.
Preparation and incubation of precision-cut lung slices. Lung lobes were canuled and filled with 37° C. warm 2% low-melting agarose/medium solution. Filled lobes were cooled on ice to polymerise agarose. Tissue cores with a diameter of 8 mm were prepared and cut into approximately 300 μm thick slices using a microtome (Krumdieck tissue slicer, Alabama Research and Development, Muniford, AL, USA or Vibratome OTS-5000, Science Services GmbH, Munich) in Earle's Balanced Salts Solution (EBSS). Tissue slices were incubated in Dulbecco's modified Eagle's medium/nutrient mixture F-12 Ham (DMEM) with L-glutamine and 15 mM HEPES without phenol red. Tissue slices were transferred into petri dishes and washed with DMEM for 2 hours. Medium was changed four times every 30 minutes in order to remove cell debris.
Two PCLS per well were left over night in 500 μL DMEM in 24-well plates for a final washing step. Next day, PCLS were treated with experimental treatments or controls (see Table E5) in 250 μl DMEM/F-12 culture medium for 48 hours under normal cell culture conditions (37° C., 5% CO2). Medium contained 100 units/mL penicillin and 100 μg/mL streptomycin and was not supplemented with fetal calf serum. […]
Extracellular matrix remodeling evaluation. Biomarkers that reflect ECM remodeling were assessed in supernatant by Nordic Bioscience using the following competitive ELISA: PRO-C6 (C-terminal of type VI collagen C5 domain released as type VI collagen is incorporated into the matrix; measured on mesoscale platform [hsPRO-C6]): Reflects type VI collagen formation. […]
Statistics. […] Pooled data are presented as percentage of the “no treatment” control, calculated for individual regions and donors. Statistical significant differences were evaluated on pooled data by Kruskal-Wallis with Dunn's multiple comparisons test, comparing to the “no treatment” control. […]

In a further experiment the target is T1, hIL-11Rα (Homo sapiens, UniProt Q14626).
T1 sequence (Q14626 23-422): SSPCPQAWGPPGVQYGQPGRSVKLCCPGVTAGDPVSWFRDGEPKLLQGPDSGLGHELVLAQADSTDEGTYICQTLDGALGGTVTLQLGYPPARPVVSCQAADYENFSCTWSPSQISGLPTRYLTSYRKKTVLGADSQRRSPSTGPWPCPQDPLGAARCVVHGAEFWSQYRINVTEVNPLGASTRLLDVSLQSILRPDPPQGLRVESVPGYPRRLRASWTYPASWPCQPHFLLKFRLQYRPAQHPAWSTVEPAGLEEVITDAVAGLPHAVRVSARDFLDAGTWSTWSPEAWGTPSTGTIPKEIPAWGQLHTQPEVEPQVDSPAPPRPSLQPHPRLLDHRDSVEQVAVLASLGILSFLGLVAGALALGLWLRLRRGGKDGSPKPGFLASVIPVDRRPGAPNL
Description: Kinetic binding analysis by biolayer interferometry (protein G biosensors, Octet RED96e). As to the method: Association was carried out in the presence of a 2-fold dilution series of hIL-11Rα and was allowed to proceed for 120 seconds; dissociation was measured for 300 to 1200 seconds.

The test system of experiment [2] is IL-11 signaling (STAT3 Reporter (Luciferase)-HEK293 cell line). Description: Cell-based STAT3 reporter (luciferase) HEK293 assay for inhibiting IL-11 signaling. Details: species or system human. As to the method:
Further testing of the lead mAbs was carried out using a cell-based reporter assay. IL-11 is reported to signal through the STAT3 and ERK pathways. Therefore, a STAT3 reporter cell line in which firefly luciferase gene expression is driven by STAT3 response elements located upstream of a minimal TATA promoter was selected to analyze mAb functional activity. In these cells, IL-11 can activate the endogenous STAT3 allowing it to bind to the STAT3 response elements, inducing transcription of the luciferase reporter gene and resulting in readily detectable luciferase expression. Antibodies to IL-11R which block IL-11 signaling should inhibit expression of IL-11 driven luciferase in these cells.
The STAT3 Reporter (Luciferase)—HEK293 cell line (BPS Bioscience, catalog #79800-P) was grown, passaged, and assayed as per manufacturer's protocols. Cells were added at 25,000 cells per well in a 96-well microtiter dish and incubated at 37° C. for 30-45 min. in 5% CO2 humidified air. Anti-IL-11R mAbs were added as a 3-fold dilution series in duplicate columns or rows, and plates were returned to the incubator for an additional 1 h at 37° C. after which 40 ng/mL IL-11 was added to each well to initiate the signal transduction cascade and luciferase production. Plates were incubated for 18-24 hours at 37° C. and luciferase was detected using a One-Step Luciferase Assay System (BPS Bioscience, cat. no. 60690-1) as per manufacturer's instructions.

The next experiment deals with T2, hIL-11R (Homo sapiens, UniProt Q14626).
T2 sequence (Q14626 23-422): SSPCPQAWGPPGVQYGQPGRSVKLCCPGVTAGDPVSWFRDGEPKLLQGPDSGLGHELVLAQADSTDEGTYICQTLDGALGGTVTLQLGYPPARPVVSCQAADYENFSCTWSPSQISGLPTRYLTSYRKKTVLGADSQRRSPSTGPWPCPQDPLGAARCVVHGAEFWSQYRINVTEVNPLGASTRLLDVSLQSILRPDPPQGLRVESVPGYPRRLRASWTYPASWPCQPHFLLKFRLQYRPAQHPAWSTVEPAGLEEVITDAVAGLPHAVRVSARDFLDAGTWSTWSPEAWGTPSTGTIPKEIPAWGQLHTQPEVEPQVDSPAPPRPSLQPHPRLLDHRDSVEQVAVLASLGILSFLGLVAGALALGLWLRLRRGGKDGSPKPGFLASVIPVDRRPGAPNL
The experiment can be described thus: Alternate biolayer interferometry assay (AHC biosensors) ranking mAbs 16-32 against mAb5. Conditions: AHC biosensors. The format is binding. An excerpt:
A further series of antibodies were designed in which the residue at Kabat position 31 of the heavy chain was varied (mAbs 16-32). In this case an alternate biolayer interferometry assay was used to initially rank the antibodies compared to mAb5, the closest relative in sequence to mAbs 16-32. MAbs were loaded onto anti-human constant domain (AHC) biosensors (FortéBio) in 10×kinetics buffer consisting of PBS, 0.1% BSA, 0.02% polysorbate 20 (TWEEN™) for 120 s to achieve a spectral shift value of 0.8 to 1.2 nm. Association was carried out in the presence of 2-fold dilution series of hIL-11R and was allowed to proceed for 120 s. Dilution series started 10 nM. The dissociation in 10×kinetics buffer for 1200 s. Binding kinetic measurements were taken on an Octet RED96e instrument.

Consider `COC(=O)c1ccc2c(c1)NC(=O)/C2=C(\Nc1ccc(N(C)C(=O)CN2CCN(C)CC2)cc1)c1ccccc1` [nintedanib, Nintedanib, reference compound], for which, in experiment [1] (48 hours), the “median levels of PRO-C6 compared to the no treatment (media) control” value is reported as “decreased”.

B1: mAb5: anti-IL-11Rα antibody, human IgG4 (S228P), kappa; VH SEQ ID NO: 201, VL SEQ ID NO: 202 (antibody, V domains shown)
VH: EVQLLESGGGLVQPGGSLRLSCAASGFTFSWYSMTWVRQAPGKGLEWVSSIVPYGDLTQYADSVKGRFTISRDNSKNTLYLQMNSLRAEDTAVYYCAKGPGWGSFDLWGRGTLVTVSS
VL: DIQMTQSPSSLSASVGDRVTITCQASQDINNYLNWYQQKPGKAPKLLIYDASNLQTGVPSRFSGSGSGTDFTFTISSLQPEDIATYYCQQHESQSPTFGPGTKVDIK
modifications: IgG4 S228P kappa constant regions; mAb5 VH Chain; mAb5 VL Chain
For B1, in the experiment with hIL-11Rα, the ka turned out to be 63700 M⁻¹ s⁻¹ and the kd is <1e-07 s⁻¹. For the same molecule, the “potency at inhibiting IL-11 signaling relative to TS7 / 8E2 (in words)” value in experiment [2] is reported as “more potent at inhibiting IL-11 signaling than either of TS7 or 8E2”. Further, the “dose relation of PRO-C6 reduction” value in experiment [1] (0.3, 3.0, 30 μg/mL, 48 hours) is on record as “reduced PRO-C6 in a dose-dependent manner”. In addition, the “median levels of PRO-C6 compared to the no treatment (media) control” value in experiment [1] (48 hours) was “decreased”. In experiment [1] (in several cases), the “effects on ECM remodeling relative to nintedanib” value was “better effects on ECM remodeling”. In addition, in the experiment with hIL-11R, the ka was 490000 M⁻¹ s⁻¹ and the kd was 2.5e-05 s⁻¹.
